Data from US20020192640A1 (Boehringer Ingelheim, published 2002).

T1: 4K-6H-NS2/3 (904-1206)st-4K (Hepatitis C virus genotype 1b)
T1 chain: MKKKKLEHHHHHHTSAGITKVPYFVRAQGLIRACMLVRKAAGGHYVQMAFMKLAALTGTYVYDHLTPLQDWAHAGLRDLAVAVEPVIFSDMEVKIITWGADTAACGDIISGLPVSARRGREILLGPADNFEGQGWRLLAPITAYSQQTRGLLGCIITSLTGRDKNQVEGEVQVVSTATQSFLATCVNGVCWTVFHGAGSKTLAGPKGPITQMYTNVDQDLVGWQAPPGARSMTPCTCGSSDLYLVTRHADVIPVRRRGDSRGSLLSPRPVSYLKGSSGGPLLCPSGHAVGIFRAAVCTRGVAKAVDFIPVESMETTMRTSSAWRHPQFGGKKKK


Target: T1, 4K-6H-NS2/3 (904-1206)st-4K
Assay: cell-based or functional assay

| Binder | IC50, inhibition of NS2/3 autocleavage |
| --- | --- |
| APITAY [Peptide 5, APITAY] | 1000 µM |
| SFEGQGWRLL [Peptide 2, SFEGQGWRLL] | 90 µM |
| APITAYSQQT [Peptide 3, APITAYSQQT] | > 1000 µM |
| SFEGQGWRLLAPITAYSQQT [Peptide 1, SFEGQGWRLL-APITAYSQQT] | 270 µM |
| KGWRLLAPITAY [Peptide 4, KGWRLL-APITAY] | 630 µM |
